Experimental data from the nanobody polyreactivity screen of Harvey et al. (2022).

Experiment: yeast display, Sf9 membrane polyspecificity reagent, FACS + sequencing; frameworks hold sequencing errors
Outline: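 A nanobody's polyreactivity label depends on the gate it was sorted from. Yeast display cells were stained with 10% biotinylated, detergent-solubilized Sf9 membrane reagent for 1 hour at 4 °C, enriched on streptavidin microbeads and sorted by FACS. The low and high (top ~1%) gates were set on anti-HA fluorescence for expression and streptavidin fluorescence for reagent binding.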
In the case of “QVQLVESGGVLVQAGGSLRLSCAASGYIFQTYAMGWYRPAPGKEREFVAAISFIGSSTRYADSVKGRFTISRDNAKNTVYLQMNSLKPEDTAVYYCNNDTITSTWTPYTSWFGYWGQGTQVTVSS”, the “polyreactivity (PSR sort gate)” value is reported as “high polyreactivity”.
With “QVQLVESGGGLVQAGGSLRLSCAASGSIFLRNAMGWYRQAPGKERALVAAISWGGRTYYADSVKGRFTISRDNAKNTVYLQMNSLKPEDTAVYYCAADGTWVRSPHFYYWGQGTQVTVSS” the “polyreactivity (PSR sort gate)” value was “low polyreactivity”.
For “QVQLVETGGGLVQAGGSLRLSSAASGSILEGYAMGWYRQAPGKERELVPAISRSGGSTYYADSVKGRFTISRDNAKNTVYLQMKSLKPEDTAVYYCAARYRLDGTHLTGYAYYSWGQGTQGTVSS”, the “polyreactivity (PSR sort gate)” value was “high polyreactivity”.
For “QVQLVESGGGLVQAGGSLRLSCAASGFTFVRYVMGWYRQAPGKERELVAAISRSGGSTHYADSVKGRFTISRDNAKNTVYLQMNSLKPEDTAVYYCAAASPRWPGQGDYWGQGTQVTVSS”, the “polyreactivity (PSR sort gate)” value was “high polyreactivity”.
For “QDQLVESGGGLVQAGGSLRLSCAASGSTFGYYAMGWYRQAPRKERELVAAISWRGGSTSYADSVKGRFTISRDNAKNTVYLQMNSLKPEDTAVYYCAAPRGTLTSWAGNYWGQGTQVTVSS”, the “polyreactivity (PSR sort gate)” value was “high polyreactivity”.
In the case of “QVQLVESGGRLVQAGGRLRLSCAASGRIFRYYTLGWYRQAPGKERELVAAITRRGGITNYADSVKGRFTISRDNAKNTVYLQMNSLKPEDTAVYYCAAKYVSQGYDYWGQGTQVTVSS”, the “polyreactivity (PSR sort gate)” value is reported as “high polyreactivity”.
With “QVQLVESGGGIVQAGGSLRLSCAASGFTFWRYARGWYRQAPGKERELVAGISSGGSTNYADSVKGRFTISRDNAKNTVYLQMNSLKPEDTAVYYCAARGNYFYGIYGYWGQGTQVTVSS” the “polyreactivity (PSR sort gate)” value was “low polyreactivity”.
In the case of “QVHLVESGGGLVHAGGSLRLSCAASGIIFSYYAMGWYRQAPVKERELVAAISRSGVRTYFSDSVKGRFTISRDNAKNTVYLQMNSLKPEDTSVYYCNAEFSPYPYDYWGQGTQVTVSS”, the “polyreactivity (PSR sort gate)” value is reported as “high polyreactivity”.
In the case of “QVQLVESGRRLVQAGGSLRLSCAASGRIFPGNAMGWYRQAPGKERELVAAMSYGGGSTYYADSVKGRFTISRDNAKNTVYLQMNSLKPEDTAVYYCAARYRGSRFDYWGQGTQVTVSS”, the “polyreactivity (PSR sort gate)” value is reported as “high polyreactivity”.
With “QVQLVESGGGLVQAGGSLRLSCAASGSIFVGYAMGWYRQAPGKERELVAAISSNGGSTYYADSVKGRFTISRDNAKNTVYLQMNSLKPEDTAVYYCAAGVRRVYASGHGAYGYWGQGTQVTVSS” the “polyreactivity (PSR sort gate)” value was “low polyreactivity”.
For “QVQLVESGGGLVQAGGRLRLSCAASGFIFYYNTMGWYRQAPGKERELVAAISSGGRTYYADSVKGRFTISRDNAKNTVYLQMNSLKPEDTAVYYCNVVTYVKYGYWGQGTQVTVSS”, the “polyreactivity (PSR sort gate)” value was “high polyreactivity”.
With “QVQLVESGGGLVQAGGSLRLSCAASGSIFGENAMGWYRQATGKERELVAAITWGGTSTYYADSVKGRYTISRDNAKNTVYLQMNSLKPEDTAVYYCNTPRYVRRQGVKRYDYWGQGTQVTVSS” the “polyreactivity (PSR sort gate)” value was “low polyreactivity”.
In the case of “QVQLVESGGGLVQAGGSLRLSCAASGRIFWYYGMGWYRQAPGKERELVAAIRGGGSTYYADSVKGRFTISRDNAKNTVYLQMNSLKPEETAVYYCAVDWSRFYNRGGDYWGQGTQVTVSS”, the “polyreactivity (PSR sort gate)” value is reported as “high polyreactivity”.
For “QVQLVESGGGLVQAGGSLRLSCAASGGSFYPYAMGWYRQAPGKERELLAAISWSGDITYYADSVKGRFTISRDNAKNTVYLLINSLKPEDTAVYYCAAGRVVDKDPSYFREGDYWGQGTQVTVSS”, the “polyreactivity (PSR sort gate)” value was “low polyreactivity”.
For “QVQLVESGGGLVQAGGSLRLSCAASGSIFPFYAMGWYRQAPGKERELVAVISTRGGSTYYADSVKGRFTISRDYAKNTVYFQMKSLKPEDTAVYYCAAKSVYRMGYWGQGTQVTVSS”, the “polyreactivity (PSR sort gate)” value was “high polyreactivity”.
For “QVQLVESGGGLVQAGGSLRLSCAASGRTFWKYAMGWYRQAPGKERELVAAITASGARTYYADSVKGRFTISRDNAKNTVYLQMNSLKPEDTAVYYCNAGSVSDRQMDYWGQGTQVTVSS”, the “polyreactivity (PSR sort gate)” value was “low polyreactivity”.
In the case of “QVQLVESGGGLVQAGGSLRLSCAASGRTINRYAMGWYRQAPGKERELVAVITSDGRTNYADSVKGRFTISRDNAKNTVYLQMNSLKPEDTAVYYCNKRSALSFVYDFDYWGQGTQVTVSS”, the “polyreactivity (PSR sort gate)” value is reported as “low polyreactivity”.
With “QVQLVESGGGLVQAGGSLRLSCAASGRIFTWNAMGWYRQAPGKERELVASISRSGTSTYYADSVKGRFTISRDNAKNTVYLQMNSLKPEDTAVYYCNARTIYYYFRLSTPYNYWGQGTQVTVSS” the “polyreactivity (PSR sort gate)” value was “high polyreactivity”.
In the case of “QVQLVESVGGLVQAGGSLRLSCAASGRIFYPYAMGWYRQAPGKERELVAAITRGGITTYADSVYGRFTISRDNAKNTVYLQMNSLKPEDTAVYYCNAVRWYGRMDYWGQGTQVTVSS”, the “polyreactivity (PSR sort gate)” value is reported as “low polyreactivity”.
For “QVQLVESGGVLVQAGGSLRITCAASGHIFFYDTMGWYRQAPGKERELVAGITIGGSTNYADSVKGRFTISRDNAKNTVSLQMNSLKPEDTAVYFCNVVKYVYIYSYWEYYYWGQCTQVTVSS”, the “polyreactivity (PSR sort gate)” value was “low polyreactivity”.
With “QVQLVESGGGLVQAGGSLRLSCAASGRIFNQYGMGWYRPAPGKERELVAAIRSGDSTNYADSVKGRFTISRDNAKNTVELQMNSLKPEDTAVYYCARDRPGDYAGYDYWGQGTQVTVSS” the “polyreactivity (PSR sort gate)” value was “low polyreactivity”.
In the case of “QVQLVESGGGLVQAGGSLRLSCAASGSIFDIYGMGWYRQAPGKERELVASISRGAGSTNYADSVKGRFTISRDNAKNTVYLQMNSLKPEDTAVYYCAAEVYVPDYFQHKFDVEYEYWGQGTQVTVSS”, the “polyreactivity (PSR sort gate)” value is reported as “low polyreactivity”.
With “QVQLVESGGGLVQAGGSLRLSCAASGFTFGKYCMGWYRQAPGKERELVAAISASGGITYYADSVKGRFTISRDNAKNTVYLQMNSLKPEDTAVYYCAARRYEPKAVYYWGQGTQVTVSS” the “polyreactivity (PSR sort gate)” value was “high polyreactivity”.
For “QVQLVESGGGLVQAGGRLRLSCAASGRTFGYNFMGWYRQAPGKERELVAAISSSGGSTYYADSVKGRFTISRDNGMNTVYLQMNSLKREDTAVYYCNARRGRASGMDYWGQGTQVTVSS”, the “polyreactivity (PSR sort gate)” value was “high polyreactivity”.
In the case of “QVQLVESGGGLVQAGGSLRLSCAASGSIFDYNAMGWYRQAPGKEREFVAAISSSAGSTYYADSVKGRFTISRDNAKNTVYLQMNSLKPEDTAVYYCAARYQSPFRTYRFGMDYWGQGTQVTVSS”, the “polyreactivity (PSR sort gate)” value is reported as “low polyreactivity”.
With “QVQLVESGGGLVQAGGSLRLSCAASGNTFVSNARGWYRQAPGKERELVAAIDSGGSTNYADSVKGRFTISRDNAKNTVYLQMNSLKPEDTAVYYCNRTSVYYYYWGQGTQVTVSS” the “polyreactivity (PSR sort gate)” value was “low polyreactivity”.
In the case of “QVQLVESGGGLVQAGGSLRLSCAASGSTFYINAMGWYRQAPGKERELVAAISWSTTITYYADSVKGRFTISRDNAKNTVYLQMNSLKPEDTAVYYCAAEEEYWDYSGGGYWGQGTQVTVSS”, the “polyreactivity (PSR sort gate)” value is reported as “high polyreactivity”.
For “QVQLVESGGGLVQAGGSLRLSCAASGSTFSYYTMGWYRQAPGKERELVADIDSGDDTYYADSVKGRFTISRDNAKNTVYLQMNSLKPEDTAVYYCATEFNRPHFTVRVRFKYYYWGQGTQVTVSS”, the “polyreactivity (PSR sort gate)” value was “low polyreactivity”.
With “QVQLVESGGGLVQAGGSLRLSCAASGFTFYYNAMGGYRQAPGKEREFVAGITRTGGSTYYADSVKGRFTISRDNAMNTVYLQIKSLKPEDTAVYYCAATHYYYGTSRYDYWGQVTQVTVSS” the “polyreactivity (PSR sort gate)” value was “high polyreactivity”.
With “QVQLLESGGGLVQAGGSLRLSCAASGRIFGYYTMGWYRQAPGKERELVAGITRRGGRTYYADSVKGRFTISRDNAKNTVYLEMNSLKPEDTAGYYCAVRSGVNFYYWGQGTQVTVSS” the “polyreactivity (PSR sort gate)” value was “high polyreactivity”.
For “QVQLVESGGGLVQAGGSLRLSFAASGGTFYTYVMGWYRQAPGKERELVAAISGSGGSTYYADSVKGRFTISRDNAKNTVYLQMNSLKPEDTAVYYCAAEGFVTWYRQGQVYYWGQGTQVTVSS”, the “polyreactivity (PSR sort gate)” value was “high polyreactivity”.
In the case of “QVQLVESGGGLVQAGGSLRLSCAASGLTFKRYVMGWYRQAPGKERELVAAITVSGGNTYYADSVKGRFTISRDNAKNTVYLQMNSLKPEDTAVYYCNADAGAIYYRRYHFYYWGQGTQVTVSS”, the “polyreactivity (PSR sort gate)” value is reported as “low polyreactivity”.
For “QVQLVESGGGLVQEGGSLRLSCAASGLTFYYYAMGWYRPAPGKERELVAAISRSGGSTYYADSVKGRFTISRDNAKITVYLQMNSLIPEDTAVYYCASRDHAGYYKYDYWGQGTQVTVSS”, the “polyreactivity (PSR sort gate)” value was “high polyreactivity”.
In the case of “QVQHVESGGGLVQAGGSLRLSCAASGFTFPSYAMGWYRQAPGKERELVAGISRGGTRTYYADSVKGRFTISRDNAKNTVYLQMYSLKPEDTAVYYCAATHGLRIRFPGDYWGQGTQVTVSS”, the “polyreactivity (PSR sort gate)” value is reported as “high polyreactivity”.
In the case of “QDQLVESGGGLVQAGGSLRLSCADSGSNFKYNAMGWYRPAPGKERELVAAISTRGSTTNYADSVKGRFTISRDNAKNTVYLQMNSLKPEDTAVYDCNKYANRRDRTRGADYDYWGQGTQVTVSS”, the “polyreactivity (PSR sort gate)” value is reported as “high polyreactivity”.
In the case of “QVQLVESGGGLVQAGGSLRLICAASGRTCRTYTMGLYRQATGKEREFVAAITSSGASTYYADSVKGRFTISRDKAKNTVYLQMNSLKPEDTAVYYCAARPRPRSANGMYYWGQVTQVTVSS”, the “polyreactivity (PSR sort gate)” value is reported as “high polyreactivity”.
For “QVQLLESGGGLVQAGGCLRLSCAASGSIFYPYALGGYRQAPGIVRELVAAISSREGRSYYADSVKGRFTISRDNGKKTVYLQMNSLKPEDTAVYYCAACSFNYGHRFYWGQGSQVTVSS”, the “polyreactivity (PSR sort gate)” value was “high polyreactivity”.
In the case of “HVQLQESGGGLVQAGGSLRLSCAASGSNFRWSPMGWYRLAPGKEREFVAGINRGGITNYADSVKGRFTSSRDNAKNTVYLQMNSLKPEDTALYYCAAIAYPDLPTYFDYDSDYFYRGQGTQVTVSS”, the “polyreactivity (PSR sort gate)” value is reported as “low polyreactivity”.
With “QVQLVESGGGLVQAGGSLSLSCAASGSTFPKYAMGWYRQAPGKERELVAAISGSGGSTYYADSVKGRFTISRDNAKNTVYLQMNSLKPEDTAVYYSAVAWNVRGVGARQRDIYGYWGQGTQVTVST” the “polyreactivity (PSR sort gate)” value was “high polyreactivity”.
For “QVQLVESGGGLVQAGGSLRLSCAASGSIFQYNAMGWYRQVPGKERELVAAITSGGSTYADSVKGRFTISRDNAKNTVYLQMNSLKPEDTAVYYCNADRWFGNYLHLTFLNDYWGQGTQVTVSS”, the “polyreactivity (PSR sort gate)” value was “low polyreactivity”.
With “QVQLVESGGGLDQAGGSLRLSCAASGSILDSYTMGWYRQAPGKERELVPAITSDGGSTYYADSVKGRFTISRDNAKNTVYLQMNSLKPEDTAVYYCAKLSRYYGFWYTPDFDYWGQGTQVTVSS” the “polyreactivity (PSR sort gate)” value was “high polyreactivity”.
In the case of “QVQLVESGGGLVQAGGSLRLSCAASGSIFADNGMGWYRQAPGKERELVAAINSGSTYADSVKGRFTISRDNAKNTVYLQMNSLKPEDTAVYYCNADGVTSGRVDYWGQGTQVTVSS”, the “polyreactivity (PSR sort gate)” value is reported as “low polyreactivity”.
In the case of “QVQLVESGGGLVQAGGSLRLSCAASGLTFRGNVMGWYRQAPGKERELVAAISRSGNTYYADSVKGRFTISRDNAKNTVYLQMNSLKPEDTAVYYCAAQSVRWYSSFKYYYWGQGTQVTVSS”, the “polyreactivity (PSR sort gate)” value is reported as “high polyreactivity”.
